US7888089B2, “eNOS mutations useful for gene therapy and therapeutic screening” (Yale University, priority 1999, dated 2011)
“Also recorded” adds a separate entry of the source. Where two headings read alike, the source gives them in different places.

Assays:
eNOS [1] = test: Hemoglobin capture assay of NO production by purified eNOS; format: biochemical, bovine; details: for Kcat (substrate Arginine, Hemoglobin capture): rate of NO production vs L-arginine, optimal conditions
Description: Assay for NOS Activity—NO production was measured by the hemoglobin capture assay as described (Kelm et al., 1988). Briefly, the reaction mixture contained eNOS (0.5-2.5 μg), oxyhemoglobin (8 μM), L-arginine (100 μM), BH4 (5 μM), CaCl2 (120 μM), calmodulin (120-200 nM), and NADPH (100 μM) in HEPES buffer (50 mM), pH 7.4. […] Under these conditions, free calcium was calculated using the WinMAXC program, version
NOS activity was monitored for linearity over 2 min at 401 nm, and NO production was calculated based on the change of absorbance using the extinction coefficient of 60 mM^−1 cm^−1. All reactions were carried out at 23° C., and each data point represents 3-8 observations. The extinction coefficient of 0.0033 μM^−1 cm^−1 at 276 nm was used for determination of calmodulin concentration. […] When the inactivation of eNOS was determined by the addition of EGTA (200-800 μM) to the reaction mixture, chelator was added 1 min after initiation of the reaction by NADPH. Identical conditions were used when NADPH-cytochrome c reductase activity was examined. These reactions contained CaM (120 nM) and CaCl2 (200 μM) in a 0.5-ml volume with eNOS (0.5 μg).

eNOS [2] = test: Conversion of L-arginine to L-citrulline by purified eNOS; format: biochemical, bovine; details: for Kcat (CaM, L-Citrulline): CaM activation of NOS activity
Description: The conversion of L-arginine to L-citrulline was assayed as described previously by Bredt et al. (1990). Briefly, eNOS (0.25-2 μg) was incubated for 3-10 min at 23° C. in the following reaction mixture: 3 pmol of L-[3H]arginine (55 Ci/mmol), 10-300 μM arginine, 1 mM NADPH, 120-200 nM calmodulin, 2 mM CaCl2, and 30 μM BH4 in a final reaction volume of 50-100 μl. The reaction was terminated by the addition of 0.5 ml of 20 mM HEPES, pH 5.5, containing 2 mM EGTA and EDTA. The reaction mixture was placed over Dowex AG50WX8, and the flow-through was counted on a Packard 1500 liquid scintillation analyzer.

cytochrome c = test: NADPH-cytochrome c reductase activity of purified eNOS; format: biochemical; details: for Kcat (CaM, Cytochrome c): CaM activation of cytochrome c reduction; for EC50: cytochrome c reduction; for Km: Km for NADPH; for Kcat − CaM (NADPH, Cytochrome c) / Kcat + CaM (NADPH, Cytochrome c): NADPH dependence
Description: Assays for Reductase Activity—NADPH-cytochrome c reductase activity and 2,6-dichlorophenolindophenol (DCIP) reduction were measured as a change in absorbance at 550 nm as described previously by Martasek et al. (1999) and Masters et al. (1967) using an extinction coefficient of 0.021 μM^−1 cm^−1 for both cytochrome c and DCIP. Briefly, a reaction mixture (1 ml) contained either cytochrome c (90 μM); DCIP (36 μM), HEPES buffer (50 mM) at pH 7.6, NaCl (250 mM), NADPH (100 μM), calmodulin (120 nM), and CaCl2 (200 μM); or other substances as indicated. The reaction was monitored for 60 s (at 23° C.) after the addition of eNOS. When inactivation of reductase activity was determined by the addition of EGTA (200-800 μM), chelator was added 1 min after initiation of the reaction and monitored for an additional 1 min. The reaction contained HEPES buffer (50 mM) at pH 7.6, CaM (120 nM), and CaCl2 (200 μM) and was initiated with NADPH (100 μM). No NaCl was added in experiments that examined EGTA inactivation of eNOS to mimic the conditions used in the hemoglobin capture experiments. […] Determination of the calcium EC50 for eNOS was performed as described above for the hemoglobin capture assay.

eNOS [3] = test: NOS activity (3H-L-arginine to 3H-L-citrulline) in COS cell lysates; format: biochemical, bovine; details: COS cells transfected with eNOS only, n=3
Excerpt: NOS activity assays: The conversion of ^3H-L-arginine to ^3H-L-citrulline was used to determine NOS activity in COS cell or endothelial cell lysates as previously described by Garcia-Cardena et al. (1998).

B1: Wild type: Wild type bovine endothelial nitric oxide synthase (eNOS) (protein, UniProt P29473 2-1205, looked up)
Nitric oxide synthase 3: GNLKSVGQEPGPPCGLGLGLGLGLCGKQGPASPAPEPSRAPAPATPHAPDHSPAPNSPTLTRPPEGPKFPRVKNWELGSITYDTLCAQSQQDGPCTPRCCLGSLVLPRKLQTRPSPGPPPAEQLLSQARDFINQYYSSIKRSGSQAHEERLQEVEAEVASTGTYHLRESELVFGAKQAWRNAPRCVGRIQWGKLQVFDARDCSSAQEMFTYICNHIKYATNRGNLRSAITVFPQRAPGRGDFRIWNSQLVRYAGYRQQDGSVRGDPANVEITELCIQHGWTPGNGRFDVLPLLLQAPDEAPELFVLPPELVLEVPLEHPTLEWFAALGLRWYALPAVSNMLLEIGGLEFSAAPFSGWYMSTEIGTRNLCDPHRYNILEDVAVCMDLDTRTTSSLWKDKAAVEINLAVLHSFQLAKVTIVDHHAATVSFMKHLDNEQKARGGCPADWAWIVPPISGSLTPVFHQEMVNYILSPAFRYQPDPWKGSATKGAGITRKKTFKEVANAVKISASLMGTLMAKRVKATILYASETGRAQSYAQQLGRLFRKAFDPRVLCMDEYDVVSLEHEALVLVVTSTFGNGDPPENGESFAAALMEMSGPYNSSPRPEQHKSYKIRFNSVSCSDPLVSSWRRKRKESSNTDSAGALGTLRFCVFGLGSRAYPHFCAFARAVDTRLEELGGERLLQLGQGDELCGQEEAFRGWAKAAFQASCETFCVGEEAKAAAQDIFSPKRSWKRQRYRLSTQAEGLQLLPGLIHVHRRKMFQATVLSVENLQSSKSTRATILVRLDTAGQEGLQYQPGDHIGICPPNRPGLVEALLSRVEDPPPPTESVAVEQLEKGSPGGPPPSWVRDPRLPPCTLRQALTFFLDITSPPSPRLLRLLSTLAEEPSEQQELETLSQDPRRYEEWKWFRCPTLLEVLEQFPSVALPAPLLLTQLPLLQPRYYSVSSAPNAHPGEVHLTVAVLAYRTQDGLGPLHYGVCSTWLSQLKTGDPVPCFIRGAPSFRLPPDPYVPCILVGPGTGIAPFRGFWQERLHDIESKGLQPAPMTLVFGCRCSQLDHLYRDEVQDAQERGVFGRVLTAFSREPDSPKTYVQDILRTELAAEVHRVLCLERGHMFVCGDVTMATSVLQTVQRILATEGDMELDEAGDVIGVLRDQQRYHEDIFGLTLRTQEVTSRIRTQSFSLQERHLRGAVPWAFDPPGPDTPGP
NO production after calcium chelation with EGTA (eNOS [1]; 600 μM EGTA, 200 μM calcium, listed as wild type eNOS): no activity was detected; also recorded: no detectable activity
EC50 (eNOS [1]; EC50 for free calcium, NO production, 250 nM CaM, read-out: EC50 (Ca2+, Hemoglobin capture, 100 mM KCl)): 0.31 µM
Km (eNOS [1]; Km for L-arginine, read-out: Km (substrate Arginine, Hemoglobin capture)): 1.8 µM
Km (eNOS [1]; Km for NADPH, in presence of CaM, read-out: Km (NADPH, Hemoglobin capture)): 8 µM
Kcat (NADPH, Hemoglobin capture) (eNOS [1]; NADPH dependence, in presence of CaM): 0.283 ± 0.017 s⁻¹
Kcat (Ca2+, Hemoglobin capture, 100 mM KCl) (eNOS [1]; calcium activation, 250 nM CaM): 0.967 ± 0.017 s⁻¹
maximal turnover rate, FIG. 8C (eNOS [1]; calcium-dependent NO production): 58 min1
maximal turnover rate, FIG. 8A (eNOS [1]; calmodulin-dependent hemoglobin capture): 22 min⁻¹
Kcat (substrate Arginine, Hemoglobin capture) (eNOS [1]): 0.45 ± 0.017 s⁻¹
Kcat (substrate Arginine, Hemoglobin capture) (eNOS [1]; listed as wild type): 0.45 ± 0.017 s⁻¹
Kcat (CaM, L-Citrulline) (eNOS [2]): 0.367 ± 0.033 s⁻¹
Kcat (CaM, L-Citrulline) (eNOS [2]; listed as wild type): 0.367 s⁻¹
EC50 (eNOS [2]; EC50 for CaM, NOS activity): 0.008 µM
Kcat (CaM, Cytochrome c) (cytochrome c): 10.3 ± 1.3 s⁻¹
Kcat (CaM, Cytochrome c) (cytochrome c; listed as wild type eNOS): 10.3 s⁻¹
EC50 (cytochrome c; EC50 for CaM, listed as wild type, read-out: EC50 (CaM, Cytochrome c)): 0.021 µM
EC50 (cytochrome c; EC50 for CaM, read-out: EC50 (CaM, Cytochrome c)): 0.013 µM
EC50 (cytochrome c; EC50 for free calcium, read-out: EC50 (Ca2+, Cytochrome c, 100 mM KCl)): 0.29 µM
Km (cytochrome c; absence of CaM): 0.4 µM
Km (cytochrome c; presence of CaM): 0.75 µM
Kcat − CaM (NADPH, Cytochrome c) (cytochrome c; absence of CaM): 1.17 ± 0.083 s⁻¹
Kcat − CaM (NADPH, Cytochrome c) (cytochrome c; absence of CaM, listed as wild type eNOS): 1.17 s⁻¹
Kcat + CaM (NADPH, Cytochrome c) (cytochrome c; presence of CaM): 7.67 ± 0.3 s⁻¹
Kcat + CaM (NADPH, Cytochrome c) (cytochrome c; presence of CaM, listed as wild type eNOS): 7.67 s⁻¹
cytochrome c reduction, first value of pair (with superoxide dismutase) (cytochrome c; absence of CaM): 86 ± 6 min⁻¹
cytochrome c reduction, second value of pair (without superoxide dismutase) (cytochrome c; absence of CaM): 95 ± 8 min⁻¹
Kcat (Ca2+, Cytochrome c, 100 mM KCl) (cytochrome c; calcium activation): 31.82 ± 0.55 s⁻¹
maximal turnover rate, FIG. 8D (cytochrome c; calcium-dependent cytochrome c reduction): 1930 min⁻¹
maximal turnover rate, FIG. 8B (cytochrome c; calmodulin-dependent cytochrome c reduction): 620 min1
reductase activity after calcium chelation with EGTA (cytochrome c; highest concentration of EGTA): residual reductase activity was found
cytochrome c reduction with superoxide dismutase (cytochrome c; presence of CaM): 610 ± 51 min⁻¹
cytochrome c reduction without superoxide dismutase (cytochrome c; presence of CaM): 866 ± 8 min⁻¹
relative decrease in cytochrome c activity in the presence of superoxide dismutase (cytochrome c; presence of CaM): 30%
CaM-stimulated cytochrome c reduction (cytochrome c; presence of CaM, n=3-5): 749 ± 35 min⁻¹
level of stimulation of cytochrome c reduction by CaM (cytochrome c; with vs without CaM): 8 fold
NOS activity in lysates (eNOS [3]): 85.3±27.0 pmol L-citrulline generated/mg protein
